Measured values taken from patent publication US20150125450A1 (published 2015).

Assays:
murine TNF-α = biological target: T1, murine TNF-α (murine, UniProt P06804 80-235); test: Western blotting, reducing conditions
T1 sequence (looked up): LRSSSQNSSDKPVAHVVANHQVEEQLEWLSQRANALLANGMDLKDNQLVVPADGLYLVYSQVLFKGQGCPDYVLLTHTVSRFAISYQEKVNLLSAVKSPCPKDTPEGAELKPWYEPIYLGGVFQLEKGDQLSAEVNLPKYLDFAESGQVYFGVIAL

human TNF-β = biological target: T2, human TNF-β (human, UniProt P01374 35-205, limits assumed); test: Western blotting, reducing conditions
T2 sequence (looked up): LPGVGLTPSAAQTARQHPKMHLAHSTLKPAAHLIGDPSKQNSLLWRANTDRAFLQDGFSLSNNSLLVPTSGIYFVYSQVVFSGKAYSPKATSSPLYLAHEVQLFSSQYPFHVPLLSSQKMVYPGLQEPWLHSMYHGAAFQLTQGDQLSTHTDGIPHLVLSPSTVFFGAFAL

human TNF-α = human TNF-α (human, UniProt P01375 77-233); test: cell-based or functional assay
Sequence of human TNF-α (P01375 77-233 limits assumed): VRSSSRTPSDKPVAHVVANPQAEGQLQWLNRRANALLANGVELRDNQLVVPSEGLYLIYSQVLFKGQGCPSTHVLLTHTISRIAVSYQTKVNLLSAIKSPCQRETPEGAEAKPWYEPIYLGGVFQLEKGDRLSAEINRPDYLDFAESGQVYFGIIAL

Cynomolgus monkey TNF-α = Cynomolgus monkey TNF-α (Cynomolgus monkey, UniProt P79337 77-233); test: ELISA
Sequence of Cynomolgus monkey TNF-α (P79337 77-233 limits assumed): as the sequence (P01375 77-233 limits assumed) above, with L37V, R44T, T72N, R138L counted along it

human IL-6 = human IL-6 (human, UniProt P05231 30-212); test: cell-based or functional assay
murine IL-6 = biological target: T3, murine IL-6 (murine, UniProt P08505 25-211); test: Western blotting
T3 sequence (looked up): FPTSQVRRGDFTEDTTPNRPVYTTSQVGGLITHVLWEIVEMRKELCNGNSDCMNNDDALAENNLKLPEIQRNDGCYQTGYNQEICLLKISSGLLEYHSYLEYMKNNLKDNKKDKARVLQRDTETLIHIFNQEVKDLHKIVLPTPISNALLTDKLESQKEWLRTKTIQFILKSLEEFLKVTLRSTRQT

B1: 4C9 mouse anti-human TNF-α monoclonal antibody (antibody, mouse IgG1, V domains shown)
VH: VQLQESGPSLVKPSQTLSLTCSVTGDSITSGFWNWIRKFPGNKFEYMGYISYSGRTYYNPSLKSRLSITRDTSKNQFYLQLNSVTAEDTATYYCARDANYVLDYWGQGTTLTVSS
VL: DIQLTQSPSSLAMSVGQKVTMNCKSSQSLLNSSTQKNYLAWFQQKPGQSPKLLVYFASARESGVPDRFIGSGSGTDFTLTISSVQAEDLADYFCQQHYRTPFTFGSGTKLEIKR
notes: Murine IgG1/kappa; 4C9D11 and 4C9D11G11 are subclones of 4C9; also called 4C9D11; 4C9D11G11
binding result (murine TNF-α): no binding | binding result (human TNF-β): no binding | EC50, inhibition of TNF-α-induced cytotoxicity, L929 cells, MTS (human TNF-α): 0.0112 µg/mL

B2: chimeric 4C9 antibody (chimeric anti-TNF-α clone 6A9) (antibody, V domains shown)
VH: VQLQESGPSLVKPSQTLSLTCSVTGDSITSGFWNWIRKFPGNKFEYMGYISYSGRTYYNPSLKSRLSITRDTSKNQFYLQLNSVTAEDTATYYCARDANYVLDYWGQGTTLTVSS
VL: DIQLTQSPSSLAMSVGQKVTMNCKSSQSLLNSSTQKNYLAWFQQKPGQSPKLLVYFASARESGVPDRFIGSGSGTDFTLTISSVQAEDLADYFCQQHYRTPFTFGSGTKLEIKR
notes: also called cIgG-anti-TNF-α
binding result (Cynomolgus monkey TNF-α): binds

B3: 2-3B2 mouse monoclonal antibody against human IL-6 (antibody, V domains shown)
VH: VKLQESGGGLVQPGGSRKLSCAASGFTFSRFGMHWVRQAPEKGLEWVAYIGRGSSTIYYADTVKGRFTISRDNPKNTLFLQMTSLRSEDTAMYYCARSNWDGAMDYWGQGTSVTVSS
VL: DIQLTQSPASLSASVGETVTITCRASGNIHNFLAWYQQKQGKSPQLLVYNAETLADGVPSRFSGSGSGTQYSLKINSLQPEDFGSYYCQHFWSTPWTFGGGTKLEIKR
notes: Murine IgG1/kappa hybridoma antibody; also called 2-3B2 anti-IL-6 antibody
potency for inhibiting IL-6 induced phosphorylation of STAT3, relative to 4-4E6 (human IL-6): ~100 fold | binding result (murine IL-6): no binding
